Test results from patent US20090105562A1, “SYSTEM AND METHODS FOR SCREENING OR ANALYZING TARGETS” (TAIPEI VETERANS GENERAL HOSPITAL, priority 2007, published 2009).

B1: BDNF: BDNF recombinant protein (protein, UniProt P23560 19-247, looked up)
Neurotrophic factor BDNF …: APMKEANIRGQGGLAYPGVRTHGTLESVNGPKAGSRGLTSLADTFEHVIEELLDEDQKVRPNEENNKDADLYTSRVMLSSQVPLEPPLLFLLEEYKNYLDAANMSMRVRRHSDPARRGELSVCDSISEWVTAADKKTAVDMSGGTVTVLEKVPVSKGQLKQYFYETKCNPMGYTKEGCRGIDKRHWNSQCRTTQSYVRALTMDSKKRIGWRFIRIDTSCVCTLTIKRGR

Columns and labels:
neural stem cell = experiment: DA and 5-HT in dialysate of neural stem cell medium after NGF induction (microdialysis, HPLC-ED); assay type: cell-based; settings: after induction with polyornithine/laminin-coating plate and NGF of neural stem cell
Procedure: (§1) A microdialysis system consists of a basic microdialysis pump (CMA/100, CMA, Stockholm, Sweden), a fraction collector (CMA/140, CMA), and a microdialysis probe cemented to a Petri dish (FIG. 3). The dialysis probe was made of a dialysis membrane 30 mm in length, 150 μm in outer diameter, and a nominal molecular weight cutoff of 13,000. Ringer solution (8.6 g/L NaCl, 0.3 g/L KCl, and 0.33 g/L CaCl2) was perfused through the probe at a flow rate of 2 μl/min. Microdialysate samples were collected every 10 min. Each microdialysate of 10 μl was injected manually into the chromatographic system and was assayed on the same sampling day. The Liquid chromatography and electrochemical detection contains a model HTEC-500 LC-ED system (Eicom, Kyoto, Japan), consisting of a three-electrode cell with Ag/AgCl as the reference electrode, a counter-electrode, and a graphite electrode as the working electrode, were used to measure dopamine (DA) and serotonin (5-HT). The experiment employed a graphite working electrode with a 25-μm gasket with the applied potential set at +450 mV versus Ag/AgCl. The column used for the separation of DA and 5-HT was a PP-ODS column (4.6×30 mm, Eicom) at room temperature (25° C.). […]

PC-12 cells = experiment: DA and 5-HT in dialysate of PC-12 cells medium after NGF induction (HPLC-ED); assay type: cell-based; settings: after induction with NGF of PC-12 cells
Procedure: as §1

LPS-treated NSCs [1] = experiment: ELISA of IL-1β, IL-6 and TNF-α in LPS-treated NSCs; assay type: cell-based, rat; settings: vs only LPS-treated NSCs; IM 3 μM; p<0.05
Procedure: (§2) IM was purchased from Sigma Chem. Co., St Louis, Mo., USA. NSCs were seeded on 24-well plates at a density of 2×10^4 cells/well in medium, followed by methyl thiazol tetrazolium assay (MTT assay) (Sigma-Aldrich Co., St Louis, Mo., USA) for cell viability. NSCs were incubated with 0.25 mg/ml MTT for 4 hours at 37° C. and the reaction was terminated by the addition of 100% isopropanol. The amount of MTT fromazon product was determined using a microplate reader and the absorbance was measured at 560 nm (SpectraMax 250, Molecular Devices, Sunnyvale, Calif., USA). NSCs were exposed to 0, 1, 2, 5, 10, 20, 30, 40, 50, 100, 200, and 300 μM of IM for 1, 3, 5, and 7 days, respectively. The activities of caspases 8 and 3 (Medical and Biological Laboratories Co., Ltd., Nagoya, Japan), and the concentration of IL-6, IL-1 and TNF-α (Pharmingen, San Diego, Calif., USA) were determined by ELISA kits and quantified by reading at 490 nm (MRX; Dynatech Laboratories, Chantilly, Va., USA). Each individual sample was analyzed in triplicate.
(§3) Double-stranded, short interfering RNA (siRNA) of BDNF and Bcl-2 were chemically synthesized by Ambion Inc., Austin, Tex., USA). The sense and antisense sequences of BDNF were designed as follows: Sense: […]tt; Antisense: AGCTTAAAAAGAG CTGtt, starting from nucleotide 137 of the Bcl-2 sequence (accession number L14680). The sense and antisense sequences of Bcl-2 were designed as follows: Sense: GCGCUGGAUAUAACUUCUUtt; Antisense: AAGAAGUUAUAUC CAGCGCtt, starting from nucleotide 137 of the Bcl-2 sequence (accession number L14680). In this test, the siRNA control used was siRNA-Cy3 (QIAGEN; sense sequence: UUCUCCGAACGUGU CACGUdTdT-3′-Cy3 and the complement 5′-ACGUGACACGUUCGGAGAAdTdT-3′-Cy3) as an irrelevant control. The transfection of siRNA was performed using Lipofectamine 2000 (Invitrogen, Carlsbad, Calif., USA) according to the manufacturer's instructions. In brief, cells were harvested with 0.25% trypsin, 1 mM ethylenediaminetetraacetic acid (EDTA) in phosphate buffered saline (PBS) without Ca^2+ and Mg^2+, and plated in six-well plates at 10^5 per cm^2. Then 3.5 μl siRNA (100 μM solution) was mixed with 125 μl serum-free culture medium for 5 minutes at room temperature. During this incubation period, 5 μl of Lipofectamine 2000 was diluted in 125 μl serum-free culture medium. These two mixtures were combined, mixed gently, and incubated for 20 minutes at room temperature for complex formation. This 250 μl of siRNA-Lipofectamine mixture was then added into the cells in a final volume of 2.5 ml per well. The transfected cells were cultured and fed daily with fresh medium until they were assayed.

LPS-treated NSCs [2] = experiment: LPS-induced apoptotic activity in NSCs, caspase 8 and 3 ELISA; assay type: cell-based, rat; settings: vs only LPS-treated NSCs; p<0.05
Procedure: as §2, §3

Bcl-2 = Bcl-2 protein expression in NSCs by western blot and immunocytochemistry; assay type: cell-based, rat; settings: treatment with either agent alone
Procedure: After the treatment with IM, the cell lysates of the NSCs were collected and the concentration of protein was determined by using the Protein Assay kit (Bio-Rad, Hercules, Calif., USA). Cell extracts with sample buffer were boiled for 5 minutes and then separated by 10% SDS-PAGE gel. After electrophoresis, the gel was transferred onto a PVDF membrane for immunoblotting. The membrane was first blocked by incubation in non-fat milk at room temperature for 2 hours, then incubated with anti-Bcl-2 antibody (Upstate Biotechnology Inc, Waltham, Mass., USA), and anti-β actin (Chemicon International Inc, Temecula, Calif., USA) for 2 hours at room temperature, washed five times with Tris-Buffered Saline Tween-20 (TBST), and then incubated further at room temperature with horseradish peroxidase-conjugated secondary antibody for 2 hours. Then the membrane was washed six times with TBST and specific bands were made visible by chemiluminescence (Santa Cruz Biotechnology, Santa Cruz, Calif., USA).
as §3
An avidin-biotin complex method was used for the immunohistochemical staining in the differentiated NSCs. Following washes with the 3% hydrogen peroxide, sodium azide and antigens were retrieved using a microwave. Each slide was then treated with antibodies for Bcl-2 (Upstate Biotechnology, Waltham, Mass., USA), Nestin (Chemicon, Temecula, Calif., USA), 4′, 6-diamidino-2-phenylindole (DAPI; Chemicon, Temecula, Calif., USA) and MAP2 (Chemicon, Temecula, Calif., USA). Immunoreactive signals were detected with a mixture of biotinylated rabbit anti-mouse IgG and Fluoresave (Calbiochem, La Jolla, Calif., USA) under confocal microscopy (Olympus, FV300). Each individual sample was analyzed in triplicate. Furthermore, apoptotic cells were identified by the TUNEL method (In Situ Cell Death Detection Kit, POD, Roche Boehringer Mannheim Corp., IN, USA) as described in Chiou et al., J. Immunol. 167, 4098-4103, 2001. Briefly, the cells with cover slips were washed with 1× phosphate buffered saline (PBS), fixed with 4% of paraformaldehyde for 10 minutes, permeabilized with 0.1% of triton X-100 for 5 mins, and incubated with the TUNEL reagent provided for 1 hour. Chromogenic development was then applied with 3-amino-9-ethyl-carbazole, and slides were counterstained with H & E stain. […]

LPS-treated NSCs [3] = experiment: Cell survival rate of LPS-treated NSCs; assay type: cell-based, rat; settings: vs only LPS-treated NSCs; LPS 100 ng/ml
Procedure: as §2
as §3, with “Then 3.5 μl siRNA (100 μM solution) was mixed with 125 μl serum-free culture medium for 5 minutes at room temperature. During this incubation period, 5 μl of Lipofectamine 2000 was diluted in 125 μl serum-free culture medium. These two mixtures were combined, mixed gently, and incubated for 20 minutes at room temperature for complex formation. This 250 μl of siRNA-Lipofectamine mixture was then added into the cells in a final volume of 2.5 ml per well. The transfected cells were cultured and fed daily with fresh medium until they were assayed.” left out

Row | Molecule | 5-HT concentration in dialysate (neural stem cell; basal 0.18 ng/ml) [ng/mL] | DA concentration in dialysate (neural stem cell; basal 6.04 ng/ml) [ng/mL] | 5-HT concentration in dialysate (PC-12 cells; basal 0.18 ng/ml) [ng/mL] | DA concentration in dialysate (PC-12 cells; basal 6.04 ng/ml) [ng/mL] | IL-1β production in LPS-treated NSCs (LPS-treated NSCs [1]) | IL-6 production in LPS-treated NSCs (LPS-treated NSCs [1]) | TNF-α production in LPS-treated NSCs (LPS-treated NSCs [1]) | apoptotic activities in LPS-treated NSCs (LPS-treated NSCs [2]) | Bcl-2 expression in NSCs (Bcl-2) | cell survival rate in LPS-treated NSCs (LPS-treated NSCs [3])
1 | NGF: NGF used to induce neural stem cells / PC-12 cells | 2.84 | 46.9 | 2.94 | 50.06 |  |  |  |  |  | 
2 | B1 |  |  |  |  | significantly inhibited | significantly inhibited | significantly inhibited | significantly inhibited | activate | significantly increases
